The text below walks through data of patent US20240374729A1 (published 2024).

The target of experiment [1] is T1, NY-ESO-1 peptide on HLA-A*02:01 (human).
T1 peptide: SLLMWITQC
Description: cytokine release.

The target of experiment [2] is T2, PRAME peptide on HLA-A*02:01 (human).
T2 peptide: SLLQHLIGL
Description: killing.

Experiment [3] has as its target T3, PRAME peptide on HLA-A*02:09 (human).
T3 peptide: SLLQHLIGL
Description: cytokine release.

The target in experiment [4] is T4, PRAME peptide on HLA-A*02:04 (human).
T4 peptide: SLLQHLIGL
Description: cytokine release.

For experiment [5], the target named is T5, PRAME peptide on HLA-A*02:02 (human).
T5 peptide: SLLQHLIGL
Description: cytokine release.

B1: NY-ESO-1/LAGE-1 specific TCR of SEQ ID NOs 41 and 42 (TCR, V domains shown)
Valpha: QKEVEQNSGPLSVPEGAIASLNCTYSDRGSQSFFWYRQYSGKSPELIMFIYSNGDKEDGRFTAQLNKASQYVSLLIRDSQPSDSATYLCAADDKIIFGKGTRLHILP
Vbeta: DAGVIQSPRHEVTEMGQEVTLRCKPISGHDYLFWYRQTMMRGLELLIYFNNNVPIDDSGMPEDRFSAKMPNASFSTLKIQPSEPRDSAVYFCASSRGGSGYTFGSGTRLTVV
Turning to B1, in experiment [1], the binding result is “recognises”.

B2: T23.8-2.1-027-004 (TCR, V domains shown)
Valpha: GQQLNQSPQSMFIQEGEDVSMNCTSSSIFNTWLWYKQDPGEGPVLLIALYKAGELTSNGRLTAQFGITRKDSFLNISASIPSDVGIYFCAGLADYGGSQGNLIFGKGTKLSVKP
Vbeta: DSGVTQTPKHLITATGQRVTLRCSPRSGDLSVYWYQQSLDQGLQFLIQYYNGEERAKGNILERFSAQQFPDLHSELNLSSLELGDSALYFCASSVWASGGYEQYFGPGTRLTVT
Take B2: the binding result in experiment [2], in experiment [3], in experiment [4] and in experiment [5] was “recognises” throughout.
